First the molecules themselves.
T1: EsCas13d, nuclease-dead (Eubacterium siraeum, UniProt B0MS50, R295A;H300A;R849A;H854A)
T1 sequence: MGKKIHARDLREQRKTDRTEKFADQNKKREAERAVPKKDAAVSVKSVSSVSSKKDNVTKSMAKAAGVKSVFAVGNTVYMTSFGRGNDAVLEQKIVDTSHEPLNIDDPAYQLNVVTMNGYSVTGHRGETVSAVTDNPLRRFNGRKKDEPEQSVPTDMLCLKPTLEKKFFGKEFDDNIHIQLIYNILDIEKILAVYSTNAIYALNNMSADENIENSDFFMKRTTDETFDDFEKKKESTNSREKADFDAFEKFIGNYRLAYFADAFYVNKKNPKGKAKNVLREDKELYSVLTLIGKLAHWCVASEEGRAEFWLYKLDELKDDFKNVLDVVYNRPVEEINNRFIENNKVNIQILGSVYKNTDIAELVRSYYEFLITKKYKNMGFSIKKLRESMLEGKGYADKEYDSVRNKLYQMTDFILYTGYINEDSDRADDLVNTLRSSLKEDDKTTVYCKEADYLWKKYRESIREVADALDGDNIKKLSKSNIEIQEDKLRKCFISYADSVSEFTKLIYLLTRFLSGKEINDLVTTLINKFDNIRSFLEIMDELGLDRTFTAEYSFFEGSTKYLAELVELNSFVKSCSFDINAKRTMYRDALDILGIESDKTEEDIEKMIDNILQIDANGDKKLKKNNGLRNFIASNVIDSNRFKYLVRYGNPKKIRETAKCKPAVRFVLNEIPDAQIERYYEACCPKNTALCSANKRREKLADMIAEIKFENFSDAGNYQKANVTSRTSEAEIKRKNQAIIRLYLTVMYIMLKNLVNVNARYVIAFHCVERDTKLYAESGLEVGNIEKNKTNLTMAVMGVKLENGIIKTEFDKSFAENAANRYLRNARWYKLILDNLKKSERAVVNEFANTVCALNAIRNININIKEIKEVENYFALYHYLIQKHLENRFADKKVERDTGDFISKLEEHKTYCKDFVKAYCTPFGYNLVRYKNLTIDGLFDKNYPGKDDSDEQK

B1: target 1 MT 5'PFS CAG 3'PFS ACG (mixed)
RNA 1: CACCCGUGCAAAAAUGCAGGGGUCUAAAACUGAGCGGAUAACCUCUCUAUGG
RNA 2: GGGAAUGGAUCCACAUCUACGAAUUCCAGCCAUAGAGAGGUUAUCCGCUCAACGAGAUCGGAAGAGCACACGU
B2: target 1 MT 5'PFS AGG 3'PFS ACG (mixed)
RNA 1: CACCCGUGCAAAAAUGCAGGGGUCUAAAACUGAGCGGAUAACCUCUCUAUGG
RNA 2: GGGAAUGGAUCCACAUCUACGAAUUCAGGCCAUAGAGAGGUUAUCCGCUCAACGAGAUCGGAAGAGCACACGU
B3: target 1 MT 5'PFS GUA 3'PFS UCU (mixed)
RNA 1: CACCCGUGCAAAAAUGCAGGGGUCUAAAACUGAGCGGAUAACCUCUCUAUGG
RNA 2: GGGAAUGGAUCCACAUCUACGAAUUCGUACCAUAGAGAGGUUAUCCGCUCAUCUAGAUCGGAAGAGCACACGU
B4: target 1 MT 5'PFS UUA 3'PFS AUU (mixed)
RNA 1: CACCCGUGCAAAAAUGCAGGGGUCUAAAACUGAGCGGAUAACCUCUCUAUGG
RNA 2: GGGAAUGGAUCCACAUCUACGAAUUCUUACCAUAGAGAGGUUAUCCGCUCAAUUAGAUCGGAAGAGCACACGU
B5: target 1 insA 3' of 10,insG 3' of 3 (mixed)
RNA 1: CACCCGUGCAAAAAUGCAGGGGUCUAAAACUGAGCGGAUAACCUCUCUAUGG
RNA 2: GGGAAUGGAUCCACAUCUACGAAUUCGUACCAUAGAGAGGUUAAUCCGCUGCACCGAGAUCGGAAGAGCACACGU
B6: target 1 MT 5'PFS GUA 3'PFS UCA (mixed)
RNA 1: CACCCGUGCAAAAAUGCAGGGGUCUAAAACUGAGCGGAUAACCUCUCUAUGG
RNA 2: GGGAAUGGAUCCACAUCUACGAAUUCGUACCAUAGAGAGGUUAUCCGCUCAUCAAGAUCGGAAGAGCACACGU
B7: target 1 C7A,G12A (mixed)
RNA 1: CACCCGUGCAAAAAUGCAGGGGUCUAAAACUGAGCGGAUAACCUCUCUAUGG
RNA 2: GGGAAUGGAUCCACAUCUACGAAUUCGUACCAUAGAGAGAUUAUACGCUCACCGAGAUCGGAAGAGCACACGU
B8: target 1 MT 5'PFS AGG 3'PFS ACC (mixed)
RNA 1: CACCCGUGCAAAAAUGCAGGGGUCUAAAACUGAGCGGAUAACCUCUCUAUGG
RNA 2: GGGAAUGGAUCCACAUCUACGAAUUCAGGCCAUAGAGAGGUUAUCCGCUCAACCAGAUCGGAAGAGCACACGU
B9: target 1 MT 5'PFS GUG 3'PFS AGA (mixed)
RNA 1: CACCCGUGCAAAAAUGCAGGGGUCUAAAACUGAGCGGAUAACCUCUCUAUGG
RNA 2: GGGAAUGGAUCCACAUCUACGAAUUCGUGCCAUAGAGAGGUUAUCCGCUCAAGAAGAUCGGAAGAGCACACGU
B10: target 1 MT 5'PFS ACA 3'PFS AUC (mixed)
RNA 1: CACCCGUGCAAAAAUGCAGGGGUCUAAAACUGAGCGGAUAACCUCUCUAUGG
RNA 2: GGGAAUGGAUCCACAUCUACGAAUUCACACCAUAGAGAGGUUAUCCGCUCAAUCAGAUCGGAAGAGCACACGU
B11: target 1 MT 5'PFS CUA 3'PFS AGG (mixed)
RNA 1: CACCCGUGCAAAAAUGCAGGGGUCUAAAACUGAGCGGAUAACCUCUCUAUGG
RNA 2: GGGAAUGGAUCCACAUCUACGAAUUCCUACCAUAGAGAGGUUAUCCGCUCAAGGAGAUCGGAAGAGCACACGU
B12: target 1 MT 5'PFS UCA 3'PFS CCG (mixed)
RNA 1: CACCCGUGCAAAAAUGCAGGGGUCUAAAACUGAGCGGAUAACCUCUCUAUGG
RNA 2: GGGAAUGGAUCCACAUCUACGAAUUCUCACCAUAGAGAGGUUAUCCGCUCACCGAGAUCGGAAGAGCACACGU
B13: target 1 MT 5'PFS UUA 3'PFS AUG (mixed)
RNA 1: CACCCGUGCAAAAAUGCAGGGGUCUAAAACUGAGCGGAUAACCUCUCUAUGG
RNA 2: GGGAAUGGAUCCACAUCUACGAAUUCUUACCAUAGAGAGGUUAUCCGCUCAAUGAGAUCGGAAGAGCACACGU
B14: target 1 MT 5'PFS ACA 3'PFS AUG (mixed)
RNA 1: CACCCGUGCAAAAAUGCAGGGGUCUAAAACUGAGCGGAUAACCUCUCUAUGG
RNA 2: GGGAAUGGAUCCACAUCUACGAAUUCACACCAUAGAGAGGUUAUCCGCUCAAUGAGAUCGGAAGAGCACACGU
B15: target 1 MT 5'PFS CUA 3'PFS AGU (mixed)
RNA 1: CACCCGUGCAAAAAUGCAGGGGUCUAAAACUGAGCGGAUAACCUCUCUAUGG
RNA 2: GGGAAUGGAUCCACAUCUACGAAUUCCUACCAUAGAGAGGUUAUCCGCUCAAGUAGAUCGGAAGAGCACACGU
B16: target 1 MT 5'PFS GUA 3'PFS UCG (mixed)
RNA 1: CACCCGUGCAAAAAUGCAGGGGUCUAAAACUGAGCGGAUAACCUCUCUAUGG
RNA 2: GGGAAUGGAUCCACAUCUACGAAUUCGUACCAUAGAGAGGUUAUCCGCUCAUCGAGAUCGGAAGAGCACACGU
B17: target 1 MT 5'PFS ACA 3'PFS AUA (mixed)
RNA 1: CACCCGUGCAAAAAUGCAGGGGUCUAAAACUGAGCGGAUAACCUCUCUAUGG
RNA 2: GGGAAUGGAUCCACAUCUACGAAUUCACACCAUAGAGAGGUUAUCCGCUCAAUAAGAUCGGAAGAGCACACGU
B18: target 1 MT 5'PFS CAA 3'PFS CUC (mixed)
RNA 1: CACCCGUGCAAAAAUGCAGGGGUCUAAAACUGAGCGGAUAACCUCUCUAUGG
RNA 2: GGGAAUGGAUCCACAUCUACGAAUUCCAACCAUAGAGAGGUUAUCCGCUCACUCAGAUCGGAAGAGCACACGU
B19: target 1 MT 5'PFS AGG 3'PFS ACU (mixed)
RNA 1: CACCCGUGCAAAAAUGCAGGGGUCUAAAACUGAGCGGAUAACCUCUCUAUGG
RNA 2: GGGAAUGGAUCCACAUCUACGAAUUCAGGCCAUAGAGAGGUUAUCCGCUCAACUAGAUCGGAAGAGCACACGU
B20: target 1 MT 5'PFS UUA 3'PFS CGC (mixed)
RNA 1: CACCCGUGCAAAAAUGCAGGGGUCUAAAACUGAGCGGAUAACCUCUCUAUGG
RNA 2: GGGAAUGGAUCCACAUCUACGAAUUCUUACCAUAGAGAGGUUAUCCGCUCACGCAGAUCGGAAGAGCACACGU
B21: target 1 MT 5'PFS GUA 3'PFS UCC (mixed)
RNA 1: CACCCGUGCAAAAAUGCAGGGGUCUAAAACUGAGCGGAUAACCUCUCUAUGG
RNA 2: GGGAAUGGAUCCACAUCUACGAAUUCGUACCAUAGAGAGGUUAUCCGCUCAUCCAGAUCGGAAGAGCACACGU
B22: target 1 MT 5'PFS UCA 3'PFS CCC (mixed)
RNA 1: CACCCGUGCAAAAAUGCAGGGGUCUAAAACUGAGCGGAUAACCUCUCUAUGG
RNA 2: GGGAAUGGAUCCACAUCUACGAAUUCUCACCAUAGAGAGGUUAUCCGCUCACCCAGAUCGGAAGAGCACACGU
B23: target 1 MT 5'PFS CAA 3'PFS CUG (mixed)
RNA 1: CACCCGUGCAAAAAUGCAGGGGUCUAAAACUGAGCGGAUAACCUCUCUAUGG
RNA 2: GGGAAUGGAUCCACAUCUACGAAUUCCAACCAUAGAGAGGUUAUCCGCUCACUGAGAUCGGAAGAGCACACGU

For the data set, the target named is T1, EsCas13d, nuclease-dead. Nature of the data set: crRNA (strand 1, pre-loaded); Mg2+; 40 mM Tris-HCl pH 7.5, 150 mM NaCl, 6 mM MgCl2, 1 mM DTT, 0.1% Tween-20, 0.2 mg/ml BSA; 25 C; 10 min per concentration, then washed. Conditions: tags: His6-TwinStrep-SUMO cleaved; N-terminal SNAP kept (SNAP-Surface 488); label: 3' end held by stalled T7 RNA polymerase.
As to B1, the affinity, expressed as Kd, was 19.5 ± 5.15 nM. For B2 the value was 41 ± 10 nM; for B3, 8.3 ± 0.95 nM; for B4, 13.2 ± 2.1 nM. The result for B5 reads 7.18 ± 0.25 nM; that for B6, 12.3 ± 0.95 nM; that for B7, 9.6 ± 0.8 nM.

Take B8: the Kd (in general, the constant that tells how readily two partners part at equilibrium) is 46.5 ± 22 nM. Regarding B9, binding was put at a Kd of 15.9 ± 1 nM. The result for B10 reads 56 ± 25.5 nM. For B11 the value was 41 ± 19 nM; for B12, about 25 nM; for B13, 64.5 ± 23 nM. The result for B14 reads 39.5 ± 14.5 nM. Molecule B15 registered a Kd of 12.2 ± 3.65 nM. The result for B16 reads 8.56 ± 0.55 nM; that for B17, 12.2 ± 3.9 nM; that for B18, about 25 nM. B19 displayed a Kd of 42 ± 12 nM. B20 came in with a Kd of 18 ± 7 nM. The result for B21 reads 7.33 ± 0.61 nM; that for B22, about 69 nM. For B23 the value was 14.5 ± 5 nM.

The values are drawn from article PMC10786891, “Massively parallel profiling of RNA-targeting CRISPR-Cas13d”.
